Reference: publication PMC9482650, “Quantitative fragmentomics allow affinity mapping of interactomes” (Nature Communications, 2022)

T1: ARHGAP21, Q5T5U3
T1 sequence (Q5T5U3 45-169, limits assumed, looked up): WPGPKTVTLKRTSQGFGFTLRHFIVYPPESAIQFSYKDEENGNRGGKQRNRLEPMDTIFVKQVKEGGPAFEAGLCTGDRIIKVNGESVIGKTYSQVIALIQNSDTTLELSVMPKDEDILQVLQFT

T2: DFNB31_2, Q9P202
T2 sequence (Q9P202 274-371, limits assumed, looked up): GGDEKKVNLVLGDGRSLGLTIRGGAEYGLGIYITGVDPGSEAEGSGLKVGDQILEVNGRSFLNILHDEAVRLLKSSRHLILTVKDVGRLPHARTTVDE

T3: FRMPD1, Q5SYB0
T3 sequence (Q5SYB0 52-145, limits assumed, looked up): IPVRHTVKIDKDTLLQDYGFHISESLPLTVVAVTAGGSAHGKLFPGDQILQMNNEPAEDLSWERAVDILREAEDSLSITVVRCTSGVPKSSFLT

T4: HTRA3, P83110
T4 sequence (P83110 354-453, limits assumed, looked up): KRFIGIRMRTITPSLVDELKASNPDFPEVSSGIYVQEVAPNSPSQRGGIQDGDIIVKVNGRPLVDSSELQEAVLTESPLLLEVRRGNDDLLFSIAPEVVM

T5: LRRC7, Q96NW7
T5 sequence (Q96NW7 1440-1537, limits assumed, looked up): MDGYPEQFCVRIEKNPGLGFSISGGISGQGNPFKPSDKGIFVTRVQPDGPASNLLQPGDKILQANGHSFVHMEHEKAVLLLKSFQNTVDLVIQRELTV

T6: MPDZ_10, O75970
T6 sequence (O75970 1624-1722, limits assumed, looked up): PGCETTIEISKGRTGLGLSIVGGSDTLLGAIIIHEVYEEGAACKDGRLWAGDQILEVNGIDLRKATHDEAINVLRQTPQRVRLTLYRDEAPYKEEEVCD

T7: MPDZ_5, O75970
T7 sequence (O75970 695-796, limits assumed, looked up): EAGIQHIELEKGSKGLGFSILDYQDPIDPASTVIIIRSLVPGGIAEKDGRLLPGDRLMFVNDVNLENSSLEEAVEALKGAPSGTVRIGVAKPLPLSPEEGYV

T8: MPP7, Q5T2T1
T8 sequence (Q5T2T1 134-230, limits assumed, looked up): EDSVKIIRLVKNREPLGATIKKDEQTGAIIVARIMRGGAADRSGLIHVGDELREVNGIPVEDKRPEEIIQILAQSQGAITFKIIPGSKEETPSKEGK

T9: PDZRN3_1, Q9UPQ7
T9 sequence (Q9UPQ7 244-349, limits assumed, looked up): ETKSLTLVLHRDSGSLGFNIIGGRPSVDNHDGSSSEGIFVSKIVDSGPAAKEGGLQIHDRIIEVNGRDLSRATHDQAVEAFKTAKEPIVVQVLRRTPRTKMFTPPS

T10: RHPN1, Q8TCX5
T10 sequence (Q8TCX5 508-602, limits assumed, looked up): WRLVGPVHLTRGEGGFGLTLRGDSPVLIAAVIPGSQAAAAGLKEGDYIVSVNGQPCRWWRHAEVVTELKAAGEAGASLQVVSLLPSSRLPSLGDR

T11: SNTB1, Q13884
T11 sequence (Q13884 107-205, limits assumed, looked up): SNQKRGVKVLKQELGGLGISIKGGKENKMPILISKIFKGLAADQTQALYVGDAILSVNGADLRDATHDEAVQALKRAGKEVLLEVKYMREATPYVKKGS


biological target: T1, ARHGAP21, Q5T5U3; test: holdup assay; design: key: below the threshold = too weak to quantify, mostly under pKd 3.1 to 4; conditions: plain residues with an end cap or a label only (N-terminal biotin on a linker: ado-ado)

| Binder | pKd |
| --- | --- |
| PEKVSNTTVV [IGSF5, Q9NSI5] | below the threshold |

biological target: T2, DFNB31_2, Q9P202; test: holdup assay; design: key: below the threshold = too weak to quantify, mostly under pKd 3.1 to 4; conditions: plain residues with an end cap or a label only (N-terminal biotin on a linker: ado-ado)

| Binder | pKd |
| --- | --- |
| PEKVSNTTVV [IGSF5, Q9NSI5] | below the threshold |

biological target: DLG2_3, Q15700; test: holdup assay; design: key: below the threshold = too weak to quantify, mostly under pKd 3.1 to 4; conditions: plain residues with an end cap or a label only (N-terminal biotin on a linker: ado-ado)

| Binder | pKd |
| --- | --- |
| PEKVSNTTVV [IGSF5, Q9NSI5] | 3.83 |

biological target: DLG4_1, P78352; test: holdup assay; design: key: below the threshold = too weak to quantify, mostly under pKd 3.1 to 4; conditions: plain residues with an end cap or a label only (N-terminal biotin on a linker: ado-ado)
Sequence (P78352 62-152): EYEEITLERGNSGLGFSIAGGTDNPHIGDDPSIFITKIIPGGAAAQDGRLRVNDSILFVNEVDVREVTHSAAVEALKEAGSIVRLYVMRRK

| Binder | pKd |
| --- | --- |
| PEKVSNTTVV [IGSF5, Q9NSI5] | 4.15 |

biological target: T3, FRMPD1, Q5SYB0; test: holdup assay; design: key: below the threshold = too weak to quantify, mostly under pKd 3.1 to 4; conditions: plain residues with an end cap or a label only (N-terminal biotin on a linker: ado-ado)

| Binder | pKd |
| --- | --- |
| PEKVSNTTVV [IGSF5, Q9NSI5] | below the threshold |

biological target: FRMPD2_2, Q68DX3; test: holdup assay; design: key: below the threshold = too weak to quantify, mostly under pKd 3.1 to 4; conditions: plain residues with an end cap or a label only (N-terminal biotin on a linker: ado-ado)
Sequence (Q68DX3 944-1038): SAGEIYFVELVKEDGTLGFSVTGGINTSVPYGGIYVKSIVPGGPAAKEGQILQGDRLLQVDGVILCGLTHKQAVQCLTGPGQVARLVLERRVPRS

| Binder | pKd |
| --- | --- |
| PEKVSNTTVV [IGSF5, Q9NSI5] | below the threshold |

biological target: GORASP1, Q9BQQ3; test: holdup assay; design: key: below the threshold = too weak to quantify, mostly under pKd 3.1 to 4; conditions: plain residues with an end cap or a label only (N-terminal biotin on a linker: ado-ado)
Sequence (Q9BQQ3 1-208): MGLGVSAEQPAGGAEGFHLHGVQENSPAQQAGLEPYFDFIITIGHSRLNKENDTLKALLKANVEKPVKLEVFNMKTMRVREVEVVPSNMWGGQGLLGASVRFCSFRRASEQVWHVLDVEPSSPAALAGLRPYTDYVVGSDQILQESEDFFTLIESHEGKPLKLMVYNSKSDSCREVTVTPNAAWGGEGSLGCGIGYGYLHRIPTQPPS

| Binder | pKd |
| --- | --- |
| PEKVSNTTVV [IGSF5, Q9NSI5] | 4.13 |

biological target: GORASP2, Q9H8Y8; test: holdup assay; design: key: below the threshold = too weak to quantify, mostly under pKd 3.1 to 4; conditions: plain residues with an end cap or a label only (N-terminal biotin on a linker: ado-ado)

| Binder | pKd |
| --- | --- |
| PEKVSNTTVV [IGSF5, Q9NSI5] | 4.33 |

biological target: GRIP2_6, Q9C0E4; test: holdup assay; design: key: below the threshold = too weak to quantify, mostly under pKd 3.1 to 4; conditions: plain residues with an end cap or a label only (N-terminal biotin on a linker: ado-ado)
Sequence (Q9C0E4 648-740): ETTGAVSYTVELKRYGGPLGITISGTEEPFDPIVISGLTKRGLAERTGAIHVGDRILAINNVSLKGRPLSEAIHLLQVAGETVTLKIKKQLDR

| Binder | pKd |
| --- | --- |
| PEKVSNTTVV [IGSF5, Q9NSI5] | below the threshold |

biological target: T4, HTRA3, P83110; test: holdup assay; design: key: below the threshold = too weak to quantify, mostly under pKd 3.1 to 4; conditions: plain residues with an end cap or a label only (N-terminal biotin on a linker: ado-ado)

| Binder | pKd |
| --- | --- |
| PEKVSNTTVV [IGSF5, Q9NSI5] | below the threshold |

biological target: IL16_1, Q14005; test: holdup assay; design: key: below the threshold = too weak to quantify, mostly under pKd 3.1 to 4; conditions: plain residues with an end cap or a label only (N-terminal biotin on a linker: ado-ado)
Sequence (Q14005 210-306): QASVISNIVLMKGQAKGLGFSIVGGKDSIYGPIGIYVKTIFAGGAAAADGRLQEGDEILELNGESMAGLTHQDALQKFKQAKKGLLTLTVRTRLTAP

| Binder | pKd |
| --- | --- |
| PEKVSNTTVV [IGSF5, Q9NSI5] | below the threshold |

biological target: Inadl_1, Q8NI35; test: holdup assay; design: key: below the threshold = too weak to quantify, mostly under pKd 3.1 to 4; conditions: plain residues with an end cap or a label only (N-terminal biotin on a linker: ado-ado)
Sequence (Q8NI35 113-229): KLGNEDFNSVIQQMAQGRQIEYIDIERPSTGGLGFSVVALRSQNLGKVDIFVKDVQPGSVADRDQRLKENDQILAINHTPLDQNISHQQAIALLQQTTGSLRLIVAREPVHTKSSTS

| Binder | pKd |
| --- | --- |
| PEKVSNTTVV [IGSF5, Q9NSI5] | below the threshold |

biological target: Inadl_3, Q8NI35; test: holdup assay; design: key: below the threshold = too weak to quantify, mostly under pKd 3.1 to 4; conditions: plain residues with an end cap or a label only (N-terminal biotin on a linker: ado-ado)
Sequence (Q8NI35 359-469): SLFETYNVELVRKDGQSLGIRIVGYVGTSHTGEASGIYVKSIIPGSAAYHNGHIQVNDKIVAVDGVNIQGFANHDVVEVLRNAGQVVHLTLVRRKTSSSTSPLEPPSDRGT

| Binder | pKd |
| --- | --- |
| PEKVSNTTVV [IGSF5, Q9NSI5] | 3.48 |

biological target: Inadl_4, Q8NI35; test: holdup assay; design: key: below the threshold = too weak to quantify, mostly under pKd 3.1 to 4; conditions: plain residues with an end cap or a label only (N-terminal biotin on a linker: ado-ado)
Sequence (Q8NI35 547-651): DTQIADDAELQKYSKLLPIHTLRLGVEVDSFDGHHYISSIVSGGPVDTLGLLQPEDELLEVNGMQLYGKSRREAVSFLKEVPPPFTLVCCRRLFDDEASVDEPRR

| Binder | pKd |
| --- | --- |
| PEKVSNTTVV [IGSF5, Q9NSI5] | below the threshold |

biological target: T5, LRRC7, Q96NW7; test: holdup assay; design: key: below the threshold = too weak to quantify, mostly under pKd 3.1 to 4; conditions: plain residues with an end cap or a label only (N-terminal biotin on a linker: ado-ado)

| Binder | pKd |
| --- | --- |
| PEKVSNTTVV [IGSF5, Q9NSI5] | below the threshold |

biological target: T6, MPDZ_10, O75970; test: holdup assay; design: key: below the threshold = too weak to quantify, mostly under pKd 3.1 to 4; conditions: plain residues with an end cap or a label only (N-terminal biotin on a linker: ado-ado)

| Binder | pKd |
| --- | --- |
| PEKVSNTTVV [IGSF5, Q9NSI5] | below the threshold |

biological target: T7, MPDZ_5, O75970; test: holdup assay; design: key: below the threshold = too weak to quantify, mostly under pKd 3.1 to 4; conditions: plain residues with an end cap or a label only (N-terminal biotin on a linker: ado-ado)

| Binder | pKd |
| --- | --- |
| PEKVSNTTVV [IGSF5, Q9NSI5] | below the threshold |

biological target: T8, MPP7, Q5T2T1; test: holdup assay; design: key: below the threshold = too weak to quantify, mostly under pKd 3.1 to 4; conditions: plain residues with an end cap or a label only (N-terminal biotin on a linker: ado-ado)

| Binder | pKd |
| --- | --- |
| PEKVSNTTVV [IGSF5, Q9NSI5] | below the threshold |

biological target: NHERF4_1, Q86UT5-2; test: holdup assay; design: key: below the threshold = too weak to quantify, mostly under pKd 3.1 to 4; conditions: plain residues with an end cap or a label only (N-terminal biotin on a linker: ado-ado)
Sequence (Q86UT5 other isoform, or with tags, fused parts or gaps): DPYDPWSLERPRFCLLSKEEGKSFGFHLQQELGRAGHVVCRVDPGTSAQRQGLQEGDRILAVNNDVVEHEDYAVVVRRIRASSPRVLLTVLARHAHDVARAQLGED

| Binder | pKd |
| --- | --- |
| PEKVSNTTVV [IGSF5, Q9NSI5] | below the threshold |

biological target: NHERF4_4, Q86UT5; test: holdup assay; design: key: below the threshold = too weak to quantify, mostly under pKd 3.1 to 4; conditions: plain residues with an end cap or a label only (N-terminal biotin on a linker: ado-ado)
Sequence (Q86UT5 464-550): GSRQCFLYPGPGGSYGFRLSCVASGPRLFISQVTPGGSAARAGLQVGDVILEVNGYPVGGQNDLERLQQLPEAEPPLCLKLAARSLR

| Binder | pKd |
| --- | --- |
| PEKVSNTTVV [IGSF5, Q9NSI5] | below the threshold |

biological target: PDLIM1, O00151; test: holdup assay; design: key: below the threshold = too weak to quantify, mostly under pKd 3.1 to 4; conditions: plain residues with an end cap or a label only (N-terminal biotin on a linker: ado-ado)
Sequence (O00151 1-87): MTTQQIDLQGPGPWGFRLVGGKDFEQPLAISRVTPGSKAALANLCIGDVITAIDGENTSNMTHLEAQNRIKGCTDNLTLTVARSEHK

| Binder | pKd |
| --- | --- |
| PEKVSNTTVV [IGSF5, Q9NSI5] | below the threshold |

biological target: T9, PDZRN3_1, Q9UPQ7; test: holdup assay; design: key: below the threshold = too weak to quantify, mostly under pKd 3.1 to 4; conditions: plain residues with an end cap or a label only (N-terminal biotin on a linker: ado-ado)

| Binder | pKd |
| --- | --- |
| PEKVSNTTVV [IGSF5, Q9NSI5] | below the threshold |

biological target: T10, RHPN1, Q8TCX5; test: holdup assay; design: key: below the threshold = too weak to quantify, mostly under pKd 3.1 to 4; conditions: plain residues with an end cap or a label only (N-terminal biotin on a linker: ado-ado)

| Binder | pKd |
| --- | --- |
| PEKVSNTTVV [IGSF5, Q9NSI5] | 3.67 |

biological target: SCRIB_1, Q14160; test: holdup assay; design: key: below the threshold = too weak to quantify, mostly under pKd 3.1 to 4; conditions: plain residues with an end cap or a label only (N-terminal biotin on a linker: ado-ado)
Sequence (Q14160 718-814): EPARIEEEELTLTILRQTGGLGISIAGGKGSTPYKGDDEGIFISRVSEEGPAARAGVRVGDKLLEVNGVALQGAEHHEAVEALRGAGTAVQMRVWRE

| Binder | pKd |
| --- | --- |
| PEKVSNTTVV [IGSF5, Q9NSI5] | 3.56 |

biological target: SCRIB_3, Q14160; test: holdup assay; design: key: below the threshold = too weak to quantify, mostly under pKd 3.1 to 4; conditions: plain residues with an end cap or a label only (N-terminal biotin on a linker: ado-ado)
Sequence (Q14160 999-1103): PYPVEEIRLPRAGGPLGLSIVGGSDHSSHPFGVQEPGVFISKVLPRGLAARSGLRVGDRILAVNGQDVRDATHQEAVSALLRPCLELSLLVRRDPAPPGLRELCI

| Binder | pKd |
| --- | --- |
| PEKVSNTTVV [IGSF5, Q9NSI5] | below the threshold |

biological target: T11, SNTB1, Q13884; test: holdup assay; design: key: below the threshold = too weak to quantify, mostly under pKd 3.1 to 4; conditions: plain residues with an end cap or a label only (N-terminal biotin on a linker: ado-ado)

| Binder | pKd |
| --- | --- |
| PEKVSNTTVV [IGSF5, Q9NSI5] | 3.93 |

biological target: TJP1_2, Q07157; test: holdup assay; design: key: below the threshold = too weak to quantify, mostly under pKd 3.1 to 4; conditions: plain residues with an end cap or a label only (N-terminal biotin on a linker: ado-ado)
Sequence (Q07157 181-274): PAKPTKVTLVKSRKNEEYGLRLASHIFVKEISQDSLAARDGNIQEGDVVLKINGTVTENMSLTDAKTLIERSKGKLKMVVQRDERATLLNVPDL

| Binder | pKd |
| --- | --- |
| PEKVSNTTVV [IGSF5, Q9NSI5] | below the threshold |
